US20220112288A1 (published 2022)

Assays:
[1] = target: T1, Rhesus macaque CD4-HIS (Acro Biosystems, Cat. CD4-C52H7) (rhesus macaque, UniProt P16003 26-390); assay: BLI Octet, mAb on anti-mouse Fc sensor, rhesus CD4-HIS 25-100 nM
T1 construct: Bought reagent; also called Rhesus CD4; rhesus CD4-HIS; not shown: His tag

[2] = target: T2, human CD8 on human pan T cells (CD4-negative population) (human, UniProt P01732 22-235; P10966 22-210); assay: flow cytometry, 20 nM antibody on human pan T cells, A647 anti-human IgG Fc; geomean ratio in CD4-negative population
T2 construct: whole, on cells; Target is CD8 as it stands on primary human pan T cells

huCD4-HIS = target: T3, huCD4-HIS (human, UniProt P01730 26-390, limits assumed); assay: ELISA binning, competitor Ibalizumab; 100 ng/mL huCD4-HIS, anti-HIS HRP detection; background 45, max binding 3000000
T3 construct: Named only in the head of the Ibalizumab ELISA binning column; Neither the source nor the construct limits are told in this stretch; not shown: HIS tag

[3] = target: T4, human CD4 on cells (SKW3 cells; human PBMCs) (human, UniProt P01730 26-458); assay: FACS confirmation, supernatant on SKW3 WT cells, anti-mFc 647; background gMFI 3300
T4 construct: whole, on cells; The SKW3 CD4 knockout cells served as the negative cell line; also called hCD4

[4] = target: T4, human CD4 on cells (SKW3 cells; human …); assay: FACS binning on SKW3 cells after supernatant; competitor OKT4-A488; background 2163, max binding 8200
[5] = target: T4, human CD4 on cells (SKW3 cells; human …); assay: FACS primary screen, non-clonal supernatant; SKW3 vs SKW3 CD4 KO cells, anti-human Kappa FITC detection
[6] = target: T4, human CD4 on cells (SKW3 cells; human …); assay: FACS confirmation, supernatant on human PBMCs, anti-mFc 647
[7] = target: T4, human CD4 on cells (SKW3 cells; human …); assay: FACS binning on SKW3 cells after supernatant; competitor RPA-T4-PE-Dazzle 594; background 783, max binding 15000
[8] = target: T4, human CD4 on cells (SKW3 cells; human …); assay: FACS primary screen, non-clonal supernatant; SKW3 vs SKW3 CD4 KO cells, anti-mouse Fc 647 detection
[9] = target: T4, human CD4 on cells (SKW3 cells; human …); assay: FACS confirmation, supernatant on human PBMCs, anti-mFc 647, CD4+ gate
[10] = target: T4, human CD4 on cells (SKW3 cells; human …); assay: FACS binning on SKW3 cells after supernatant; competitor OKT4a, anti-hu A647 secondary; background 5000, max binding 35000
[11] = target: T4, human CD4 on cells (SKW3 cells; human …); assay: FACS confirmation, supernatant on SKW3 WT cells, anti-hu Kappa FITC; background gMFI 2500

T1 sequence (P16003 26-390 limits assumed): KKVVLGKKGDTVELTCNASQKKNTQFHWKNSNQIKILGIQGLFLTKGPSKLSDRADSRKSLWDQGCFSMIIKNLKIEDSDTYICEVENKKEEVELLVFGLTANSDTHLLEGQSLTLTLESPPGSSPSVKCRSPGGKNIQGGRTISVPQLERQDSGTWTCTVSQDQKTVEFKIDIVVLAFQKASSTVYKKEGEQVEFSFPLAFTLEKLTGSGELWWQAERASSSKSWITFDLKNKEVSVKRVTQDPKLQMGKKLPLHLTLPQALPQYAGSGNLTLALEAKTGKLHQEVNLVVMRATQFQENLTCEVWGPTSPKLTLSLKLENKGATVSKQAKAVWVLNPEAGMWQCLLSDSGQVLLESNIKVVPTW
T2 sequence (P01732 22-235, chain 1 of 2): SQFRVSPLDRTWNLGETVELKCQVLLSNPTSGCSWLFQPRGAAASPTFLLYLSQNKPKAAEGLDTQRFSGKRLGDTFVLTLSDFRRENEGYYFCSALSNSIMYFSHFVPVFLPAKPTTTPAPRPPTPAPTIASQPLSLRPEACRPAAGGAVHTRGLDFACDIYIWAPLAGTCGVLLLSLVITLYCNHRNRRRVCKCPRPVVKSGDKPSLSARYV
T2 sequence (P10966 22-210, chain 2 of 2): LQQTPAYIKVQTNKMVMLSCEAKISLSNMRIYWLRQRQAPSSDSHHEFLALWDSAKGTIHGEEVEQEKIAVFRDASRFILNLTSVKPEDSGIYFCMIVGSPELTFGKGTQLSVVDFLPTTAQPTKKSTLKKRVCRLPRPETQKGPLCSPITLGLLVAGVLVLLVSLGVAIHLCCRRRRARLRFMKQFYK

| Binder | binding result [1] | Cell Binding to Human PanT Signal/Background (of CD4 negative population) [2] [signal/background] | other results |
| --- | --- | --- | --- |
| 75110_04G02A (antibody, V domains shown, Tested as antibody purified from AlivaMab Mouse hybridoma supernatant (captured by anti-mouse IgG Fc)) VH: not shown VL: DIVMTQSPDSLAVSLGERATINCKSSQSVLYSSNNKNYLAWYQQKPGQPPKLLFYWASARESGVPDRFSGSGSGTDFTLTISSLQAEDVALYYCQQYFGSFPTFGQGTKLEIK | no binding (tested: 100 nM) |  |  |
| CD8B362 (antibody, human IgG1, kappa, V domains shown, Full-length human IgG1, kappa) VH: EVKLVESGAELVKPGASVKLSCTASGFNIKDTYMHWVKQRPEQGLEWIGRIDPANGHTKFDPKFQGKATITADTSSNTAYLQLSSLTSEDTAVYYCAIRFAYWGQGTLVTVSA VL: DIQMTQSPSSLSASLGDRVSLTCRASHEISGYLSWLQQKPDGTFKRLIYAASTLDSGVPKRFSGSRSGSDYSLSISSLESEDFADYYCLQYSSYPYTFGSGTKLEMKR |  | 4 |  |
| CD8B340 (antibody, human IgG1, kappa, V domains shown, Full-length human IgG1, kappa) VH: QVQLQQPGAELVKPGASVRLSCKASGYTFTNYWMQWVQQRPGQGLEWIGEIDPSDTFTNYNQNFKDKATLTVDTSSSTAYLQLSSLTSEDSAVYYCARGDWDRDWYFDVWGTGTLVTVSA VL: not shown |  | 8 |  |
| 75110_05A11A (antibody, V domains shown, Tested as antibody purified from AlivaMab Mouse hybridoma supernatant (captured by anti-mouse IgG Fc)) VH: EVQLVESGGGLVKPGGSLTLSCAASGFTFSNTWMSWVRQAPGKGLEWVGRIKSKIDGGTTDYAAPVKGRFTISRDDSKNTLYLQMNSLKTEDTAVYYCTTSGTYSSGWGLFDYWGQGTLVTVSS VL: DIQMTQSPSSLSASVGDRVTITCQASQDISNYLNWYQQKPGKAPKLLIYDTSNLEAGVPSRFSGSGSGTHFTLTISSLQPEDIATYYCQQYDNLPFTFGGGTRVEIK | no binding (tested: 100 nM) |  |  |
| 75110_03I23A (antibody, V domains shown, Tested as antibody purified from AlivaMab Mouse hybridoma supernatant (captured by anti-mouse IgG Fc)) VH: QVQLQESGPGLVKPSETLSLTCTASGGSITSYYWNWIRQPAGKGLEWIGRIYTSGSTNYNPSLKSRVTMSVDTSKNQFSLKLSSVTAADTAVYYCARDPGYSDAFNIWGQGTMVTVSS VL: not shown | no binding (tested: 100 nM) |  |  |
| 75110_08H11A (antibody, V domains shown, Tested as non-clonal hybridoma supernatant from AlivaMab Mouse Kappa mice, detected with anti-mouse Fc and anti-human Kappa) VH: EVQLVESGGGLVQPGGSLRLSCAASGFTFSSYDMHWVRQATGKGLEWVSTIGTAGDTYYPGSVKGRFTISRENAKNSLYLQMNSLRAGDTAVYYCARGGYSYYGMDVWGQGTTVTVSS VL: EIVLTQSPGTLSLSPGERATLSCGASQSVSSTYLAWYQQKPGQAPRLLIYGASSRATGIPDRFSGSGSGTDFTLTISRLEPEDFAVYYCQQFGSSPFTFGPGTKVDIK |  |  | Ibalizumab ELISA binning signal (huCD4-HIS): 869000; gMFI, SKW3 WT anti-mFc 647 [3]: 18600 gMFI; OKT4 A488 signal (FACS binning) [4]: 9770; SKW3 WT vs KO, anti-hKappa-FITC (ratio) [5]: 1.6 ratio; PBMCs CD4+ percent bound of viable [6]: 31%; RPA-T4-PE-Dazzle 594 signal (FACS binning) [7]: 3090; SKW3 WT vs KO, anti-mFc-647 (ratio) [8]: 2.8 ratio; PBMCs CD4+ gate RL1 Binding [9]: 246000; OKT4a anti-hu A647 signal (FACS binning) [10]: 36000; gMFI, SKW3 WT anti-hu Kappa FITC [11]: 5230 gMFI |
| 75110_05F19A (antibody, V domains shown, Tested as antibody purified from AlivaMab Mouse hybridoma supernatant (captured by anti-mouse IgG Fc)) VH: EVQLVESGGGLVQPGGSLRLSCAASGFTFSNYDVHWVRQPTGKGLEWVSTIGTAGDTYYPGSVKGRFTISRENAKNSLYLQMNSLRAGDTAVYYCARGGYDYYGLDVWGQGTTVTVSS VL: not shown | no binding (tested: 100 nM) |  |  |
| 75110_04P06A (antibody, V domains shown, Tested as antibody purified from AlivaMab Mouse hybridoma supernatant (captured by anti-mouse IgG Fc)) VH: EVQLVESGGGLVQPGGSLRLSCAASGFTFSNYDMHWVRQATGKGLEWVSTIGTAGDTYYPGSVKGRFTISRENAKNSLYLQMNSLRAGDTAVYYCARGGDYYYGMDVWGQGTTVTVSS VL: EIVLTQSPDTLSLSPGERATLSCRASQSLSSVYLAWYQQKPGQAPRLLIYGASSRATGIPDRFSGSGSGTDFTLTINRLEPEDFVVYYCQQYGSSPFTFGPGTKVDIK | no binding (tested: 100 nM) |  |  |
| 75110_02I18A (antibody, V domains shown, Tested as antibody purified from AlivaMab Mouse hybridoma supernatant (captured by anti-mouse IgG Fc)) VH: EVQVVESGGGLVQPGGSLRLSCAASGFTFSSYDMHWVRQATGKGLEWVSTIGTAGDTYYPGSVKGRFTISRENAKNSLYLQMNSLRAGDTAVYYCARGGYYYYGMDVWGQGTTVTVSS VL: EIVLTQSPGTLSLSPGERATLSCRASQSVSSSYLAWYQQKPGQSPRLLIHGASSRATGIPDRVSGSGSGTDFTLTISRLEPEDFAVYYCQQYGSSPFTFGPGTKVDIK | no binding (tested: 100 nM) |  |  |
| 75110_01K10A (antibody, V domains shown, Tested as antibody purified from AlivaMab Mouse hybridoma supernatant (captured by anti-mouse IgG Fc)) VH: EVQLVESGGALVQPGGSLRLSCAASGFTFRNYDMHWVRQATGKGLEWVSTIGTAGDTYYPGSVKGRFTISRENAKNSLYLQMNSLRAGDTAVYYCARGGDYYYGMDVWGQGTTVTVSS VL: EIVLTQSPDTLSLSPGERATLSCRASQSLSSVYLAWYQQKPGQAPRLLIYGASSRATGIPDRFSGTGSGTDFTLTISRLEPEDFAVYYCQQYGSSPFTFGPGTKVDIK | no binding (tested: 100 nM) |  |  |
| CD8B250 (antibody, human IgG1, kappa, V domains shown, Full-length human IgG1, kappa) VH: QVQLKESGPGLVAPSQSLSITCTVSGFSLSNYVVHWVRQSPGKGLEWLGVIWTDGSTDYNAAFISRLSISKDNSKSQVFFKMNSLQADDTAIYYCARNNGYFPAFFAYWGQGTLVTVSA VL: DIVMTQSQKFMSTSVGDRVSVTCKASQNVDTDITWYQQKPGQSPKALIYSASYRYSGVPDRFTGSGSGTDFTLTITNVQSEDLAEYFCQQYNSYPLTFGSGTKLEMKR |  | 61 |  |
| 75110_05G15A (antibody, V domains shown) VH: QVQLQESGPGLVKPSQTLSLTCTVSGGSISSGGYFWSWIRQHPGKGLEWIGCIYYSGSTYYIPSLKSRVTISVDTSKNQFSLKLRSVTAADTAVYYCARDGYDYWYFDLWGRGTLVTVSS VL: not shown | no binding (tested: 100 nM) |  |  |
| CD8B248 (antibody, human IgG1, kappa, V domains shown, Full-length human IgG1, kappa) VH: EVQLQQSGAELARPGASVKMSCKASGYTFTTYTMHWVKQRPGQGLEWIGYINPSSGYTKYNQKFTDKATLTADKSSSTAYMQLSSLTSEDSAVYYCARLWAYWGQGTLVTVSA VL: DVVMTQTPLSLPVSLGDQASISCRSSQSLVHSSGNTYLHWYLQKPGQSPKLLIYKGSNRFSGVSDRFSGSGSGTDFTLKISRVEAEDLGVYFCSQSTHVPFTFGSGTKLEMKR |  | 20 |  |
| CD8B254 (antibody, human IgG1, kappa, V domains shown, Full-length human IgG1, kappa) VH: EVQLQQSGAELVKPGASVKMSCKTSGYTFSSYWITWVKQRPGQGLEWVGDIYPGSGSTNYNEKFKSKAALTVDTSSSTAFMQLNSLTSEDSAVYYCARESITTRITPFDHWGQGTTLTVSS VL: DVVMTQTPLSLPVSLGDQASISCRSSQSLVHSSGNTYLHWYLQKPGQSPKLLIYKGSNRFSGVSDRFSGSGSGTDFTLKISRVEAEDLGVYFCSQSTHVPFTFGSGTKLEIKR |  | 23 |  |
| CD8B311 (antibody, human IgG1, kappa, V domains shown, Full-length human IgG1, kappa) VH: QVQLKESGPELVKPGASVKLSCKASGYTFTSYWMHWVKQRPGQGLEWIGMIHPNSGSTNYNEKFKSKATLTVDKSSSTAYMQLSSLTSEDSAVYYCARCGYDGAWFAYWGQGTSVTVSS VL: DIQMTQTTSSLSASLGDRVTISCSASQGISNCLNWYQQKPDGTVKLLIHYTSSLHSGVPSRFSGGGSGTHYSLTISNLEPEDIATYYCQQYSKVPYTFGSGTKLEIKR |  | 1 |  |
| 75110_01C18A (antibody, V domains shown, Tested as antibody purified from AlivaMab Mouse hybridoma supernatant (captured by anti-mouse IgG Fc)) VH: EVQLVESGGGLIQPGGSLRLSCAASGFTVSSNYMNWVRQAPGKGLEWVSVIYAGDNTYSADSVKGRFTISRDNSNNTLCLQMNSLRAEDTAVYYCAREGGTTGAFDIWGQGTMVTVSS VL: DIQMTQSPSSVSASVGDRVTITCRASQGINSWLAWYQQKPGKAPKLLIYAASSLQSGVPSRFSGSGSGTDFTLTISSLQPEDFATYYCQQGNSFPYTFGQGTKLEIK | no binding (tested: 100 nM) |  |  |
